In US20200325214A1:

Assays:
[1] = molecular target: cynomolgus serum albumin (cynomolgus) (UniProt A2V9Z4); assay: SPR, scDb, pH 7.4
[2] = molecular target: human serum albumin (human) (UniProt P02768); assay: SPR, scDb, pH 7.4
[3] = molecular target: cynomolgus serum albumin (cynomolgus) (UniProt A2V9Z4); assay: SPR, scDb, pH 5.5
[4] = molecular target: human serum albumin (human) (UniProt P02768); assay: SPR, scDb, pH 5.5

koff [1] | kon [1] | Kd [2] | koff [2] | kon [2] | Kd [3] | koff [3] | kon [3] | Kd [4] | koff [4] | kon [4] | Binder
0.000549 s⁻¹ | 57000 M⁻¹ s⁻¹ | 3.36 nM | 0.000235 s⁻¹ | 70100 M⁻¹ s⁻¹ | 4.82 nM | 0.000373 s⁻¹ | 77600 M⁻¹ s⁻¹ | 2.3 nM | 0.000173 s⁻¹ | 75000 M⁻¹ s⁻¹ | PRO480 (bispecific antibody, part only; not given: second specificity domains and linkers, V domains shown, not shown: another chain or arm of the molecule) VL: DVVMTQSPSSLSASVGDRVTITCQASQIISSRSAWYQQKPGQPPKLLIYQASKLASGVPSRFSGSGSGTDFTLTISSLQPEDFATYYCQCTYIDSNFGAFGGGTKLTVLG VH: EVQLVESGGGLVQPGGSLRLSCAASGFSFSSSYWICWVRQAPGKGLEWVGCVFTGDGTTYYASWAKGRFTISRDNSKNTVYLQMNSLRAEDTATYFCARPVSVYYYGMDLWGQGTLVTVSS
0.000221 s⁻¹ | 630000 M⁻¹ s⁻¹ | 0.728 nM | 0.000345 s⁻¹ | 474000 M⁻¹ s⁻¹ | 0.175 nM | 0.000175 s⁻¹ | 1e+06 M⁻¹ s⁻¹ | 0.371 nM | 0.000333 s⁻¹ | 897000 M⁻¹ s⁻¹ | PRO462 (bispecific antibody, part only; not given: second specificity domains and linkers, V domains shown, not shown: another chain or arm of the molecule) VL: DIQMTQSPSSLSASVGDRVTITCQSSESVYSNNQLSWYQQKPGQPPKLLIYDASDLASGVPSRFSGSGSGTDFTLTISSLQPEDFATYYCAGGFSSSSDTAFGGGTKLTVLG VH: EVQLVESGGGLVQPGGSLRLSCAASGFSLSSNAMGWVRQAPGKGLEYIGIISVGGFTYYASWAKGRFTISRDNSKNTVYLQMNSLRAEDTATYFCARDRHGGDSSGAFYLWGQGTLVTVSS
